Earlier results as cited in publication PMC9697831.
pKd: −log10 of the molar value. Where two headings read alike, the source gives them in different places.

What was measured:
Kv1.3 (Homo sapiens) [1] = biological target: Kv1.3 (Homo sapiens) (UniProt P22001)
Kv1.3 (Homo sapiens) [2] = biological target: Kv1.3 (Homo sapiens) (UniProt P22001); remark: listed apart in the source

Chain of Kv1.3 (Homo sapiens) (P22001 whole entry): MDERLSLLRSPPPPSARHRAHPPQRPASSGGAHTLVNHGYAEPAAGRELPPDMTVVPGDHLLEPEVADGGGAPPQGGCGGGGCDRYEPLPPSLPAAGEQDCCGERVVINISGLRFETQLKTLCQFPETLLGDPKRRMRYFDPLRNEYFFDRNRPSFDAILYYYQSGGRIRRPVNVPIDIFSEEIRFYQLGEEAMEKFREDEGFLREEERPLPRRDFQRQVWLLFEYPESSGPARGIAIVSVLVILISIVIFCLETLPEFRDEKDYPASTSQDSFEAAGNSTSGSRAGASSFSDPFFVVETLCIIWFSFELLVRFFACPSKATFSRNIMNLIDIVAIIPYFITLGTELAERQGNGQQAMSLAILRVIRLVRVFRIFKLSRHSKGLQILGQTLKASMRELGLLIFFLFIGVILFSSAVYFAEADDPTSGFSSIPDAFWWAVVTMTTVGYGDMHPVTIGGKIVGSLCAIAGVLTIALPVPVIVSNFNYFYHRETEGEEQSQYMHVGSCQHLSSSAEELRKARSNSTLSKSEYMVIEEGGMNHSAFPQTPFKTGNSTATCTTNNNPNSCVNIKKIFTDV
Chain of Ts6 (P59936 23-62): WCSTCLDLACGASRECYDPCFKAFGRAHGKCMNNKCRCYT
Chain of Anuroctoxin (P0C166 whole entry): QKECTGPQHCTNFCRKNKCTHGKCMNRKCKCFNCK

Substance	pKd (Kv1.3 (Homo sapiens) [1])	pKd (Kv1.3 (Homo sapiens) [2])
Anuroctoxin (from UniProt P0C166)	9.14	
Ts6 (from UniProt P59936)		9.26
